Measured values: article PMC8890709

Legend:
[1] = target: GmALMT12/QUAC1 (aluminum-activated malate transporter 12 / quick anion channel 1 from Glycine max) (Glycine max (soybean)); assay: cryo-EM structure
[2] = target: GmALMT12/QUAC1 cytoplasmic helical domain (CHD, residues 221 to 537), wild type (Glycine max (soybean)); assay: SEC

| stoichiometry N [1] | stoichiometry N [2] | Substance |
| --- | --- | --- |
| 2 | – | GmALMT12/QUAC1 (aluminum-activated malate transporter 12 / quick anion channel 1 from Glycine max) (natural protein) |
| – | 2 | GmALMT12/QUAC1 cytoplasmic helical domain (CHD, residues 221 to 537), wild type (domain or fragment) |
